Experimental data: patent US20050255113A1, “Methods and compositions for inhibiting polypeptide accumulation associated with neurological disorders” (New York State Department of Health and Abgenix, Inc., priority 1999, published 2005)
No end group written: not given here.

Experiments:
cerebellar slices = test: Aggregation of model huntingtin-GFP polypeptides in biolistically transfected cerebellar slices; type: cell-based, mice (P12 Balb); settings: examined after 24 h
Method: Organotypic slice cultures are made from P12-P14 cerebellum, cerebral cortex, or striatum, using published methods with minor modifications (1)(14). The brain is dissected from a mouse and placed in a beaker of high magnesium (1.8 mM CaCl2 and 2.4 mM MgCl2) HEPES-buffered Hanks' saline (HBHS) at 4° C. The brain is then blocked and mounted next to a 2% agarose block on a 1-cm^2 piece of Plexiglas (0.3 cm thick) with SuperGlue®. Dental wax mounts the plastic onto the slicing-chamber tissue-holder. After being mounted, the tissue is placed in the slicing chamber of the vibratome. The bath of the vibratome contains cooled high magnesium HBHS at 4° C. Temperature is maintained by a peltier thermoelectric refrigeration system attached to the slicing chamber (FHC, Brunswick, Me.). Three or 400 μm thick sections were sliced from the tissues of interest. As each new slice was made it was placed into growth medium at 4° C. until the collection of slices was complete. Slices from one preparation were then placed in an enclosed filter unit, and incubated at 37° C. for 1 hour in high magnesium artificial cerebral spinal fluid ([…], 0.33 mM KCl, 0.12 mM NaH2PO4, 2.5 mM NaHCO3, 1 mM dextrose, 2.4 mM MgCl2, 1.8 mM CaCl2; all items from Sigma®, St. Louis, Mo.). Solutions were constantly gassed with 95% O2 and 5% CO2. […]

COS-7 cells = test: Aggregation and cell death of model huntingtin-GFP fusion polypeptides expressed in COS-7 cells; type: cell-based, Primate
Description: In order to determine the effects of intracellular polypeptide aggregation, cells expressing a polypeptide representing normal huntingtin polypeptide as compared to cells expressing a huntingtin polypeptide representing the polypeptide found in patients with Huntington's disease was examined. Primate cells (COS-7) were transfected with plasmid constructs encoding a model huntingtin-GFP fusion polypeptide representing the normal polypeptide or an altered huntingtin polypeptide associated with disease having 47, 72, or 104 glutamine residues. Within 24 h of transfection, a large number of the cells express the huntingtin polypeptide as indicated by the GFP tag fused to each of the test proteins. Observations were recorded at three time points (see Table 4).
Using fluorescence microscopy, it was observed that cells that express the huntingtin-GFP polypeptide with 104 glutamine residues (FIG. 3D) harbor large, brilliant aggregates. […] In cells expressing a model huntingtin polypeptide with fewer glutamine residues (72Q), extremely bright and more variable aggregates are seen, with slightly less cell death. And in cells expressing a model huntingtin polypeptide with 47 glutamine residues, the fluorescence intensity was less and more diffuse.

[1] = target: T1, biotinylated peptide corresponding to the 17 N-terminal amino acid residues of huntingtin (Nt-HD) (UniProt P42858 1-17); test: SPR, BIAcore 2000; HD peptide (1-17) with C-terminal biotin on a streptavidin chip, sFv in flow
T1 construct: range 1-17; Synthetic peptide; Captured on streptavidin (beads, plates or a BIAcore chip); also called biotinylated Nt-HD; biotinylated HD-peptide
T1 peptide (looked up): MATLEKLMKAFESLKSF-biotin
Method: (§1) For regeneration of the surface after binding of intrabody, 5 μl of 50 mM NaOH containing 1 M NaCl was injected, resulting in a return to baseline. […] The koff was determined from the dissociation part of the sensorgram at the highest concentration of intrabody analyzed by using a flow rate of 20 μl/min. The Kd was calculated as koff/kₒₙ.
(§2) To characterize the precise binding properties of the intrabody of the invention, further qualitative and quantitative studies of sFv binding to immobilized antigen were conducted in vitro.

[2] = target: T1, biotinylated peptide corresponding to …; test: BIAcore 2000 surface plasmon resonance, C4 sFv at 60, 80 and 100 nM over biotinylated HD peptide on a streptavidin sensor chip
Method: as §1, §2

[3] = target: T1, biotinylated peptide corresponding to …; test: SPR, BIAcore 2000; HD peptide (1-17) with C-terminal biotin on a streptavidin chip, sFv in flow; 1:1 Langmuir model
Method: as §1, §2

B1: 72Q: model huntingtin-GFP fusion polypeptide with 72 glutamine residues; SEQ ID NO: 13 (protein)
chain: MATLEKLMKAFESLKSFQQQQQQQQQQQQQQQQQQQQQQQQQQQQQQQQQQQQQQQQQQQQQQQQQQQQQQQQQQQQQQQQQQQQQQQQ
aggregates in brain tissue (cerebellar slices): smaller, more discrete aggregates

B2: 104Q: model huntingtin-GFP fusion polypeptide with 104 glutamine residues; SEQ ID NO: 14 (protein)
chain: MATLEKLMKAFESLKSFQQQQQQQQQQQQQQQQQQQQQQQQQQQQQQQQQQQQQQQQQQQQQQQQQQQQQQQQQQQQQQQQQQQQQQQQQQQQQQQQQQQQQQQQQQQQQQQQQQQQQQQQ
fluorescence pattern / aggregation / cell death (COS-7 cells; 72 h after transfection): substantial death
aggregates in brain tissue (cerebellar slices): large aggregates

B3: α-Nt-HD-C4 sFv (purified soluble sFv) (scFv)
scFv: QVQLQESGGGLVQPGGSLRLSCAASGFTFSSYSMSWVRQAPGKGLEWVAVISYDGSNKYYADSVKGRFTISRDNSKNTLYLQMNSLRAEDTAVYYCARDRYFDLWGRGTLVTVSSGGGGSGGGGSGGGGSQSALTQPASVSGSPGQSITISCTGTSSDIGAYNYVSWYQQYPGKAPKLLIYDVSNRPSGISNRFSGSKSGDTASLTISGLQAEDEADYYCSSFANSGPLFGGGTKVTVL
notes: Human sFv (VH-linker-VL) from a phage display library; Expressed in E. coli from pSYN-1 and purified on Ni-NTA; In the first ELISA screens it was used as bacterial supernatant from pHEN-1; Two subclones (clone 1, clone 2) were purified; they are treated here as the same molecule; also called N-HD-C4 sFv; anti-huntingtin intrabody C4 sFv; not shown: hexaHis tail from the pSYN-1 vector (sFv is also …)
Ka [1]: 1.3e+08 M⁻¹
koff [2]: 0.0015 s⁻¹
kon [2]: 190000 M⁻¹ s⁻¹
Kd [3]: 7.9 nM

B4: 47Q: model huntingtin-GFP fusion polypeptide with 47 glutamine residues; SEQ ID NO: 12 (protein)
chain: MATLEKLMKAFESLKSFQQQQQQQQQQQQQQQQQQQQQQQQQQQQQQQQQQQQQQQQQQQQQQQ
fluorescence pattern / aggregation / cell death (COS-7 cells; 24 h after transfection): diffuse, bright
